Data set [1] has as its target CnTps1 ΔIDD (Cryptococcus neoformans var. grubii strain H99 | Candida albicans) (UniProt Q6IVK9). The data set is described as follows: SEC.
The data set “cryo-EM structure” deals with the molecule itself. The data set is described as follows: cryo-EM structure.

The stoichiometry N is a count of units in the complex or per binding partner. As to “CnTps1 ΔIDD (from UniProt Q6IVK9 1-208; Q6IVK9 301-669) (enzyme)”, the stoichiometry N in data set [1] was found to be 4.

B1: 6xHis-CnTps1 (full-length Cryptococcus neoformans trehalose-6-phosphate synthase) (enzyme, UniProt Q6IVK9 1-670, looked up)
chain: MTTMSNDIPNSPTSTSFTGTFSPAATAANTAANARTSDAPSPTTSSSGPKLETSKEQRLIVVSNRLPVTISKDDNGEYHFKMSSGGLVSALSGCKKTMSFTWIGWPGKDIPMQDRETVNRRLLDEYNCYPVYLSDELADSHYNGSFSNSILWPLFHYHPGEMNFDAAHWLAYREANMRFADVVSSLVQAGDMVWVQDYHLMLLPMLLRSMITGESAQGEMVRQELGRVKEGVDDTVVKEVLKMGPGVAQAEDEGVEMLDDVEEEGGEMDVKSSPKRPHYARGMSTFQKQELVAKEKGKEGIRIGFFLHTPFPSSEIYRILPVRREILLGVLQCDLIGFHTYDYARHFLSSCTRILGLETQPNGIEFDGRYCQVGTFPIGIDPNQFIEGLQKESIVKRLRSLEARFEGVKVIIGVDRLDYIKGIPQKLQALETFLTQHPEWIGKVVLVQLAIPSRQDVEEYQDLRACVNELVGRINGRFGTVESVPIHYMHKSVPFEELTAMYALADACLVTSTRDGMNLVAYEYISSQAERHGSMILSEFAGAAQSFNGSLLINPWDVQSTADAINQALTLSPQQRKTNWQKLFNYVSKYTAEAWGVSFVNELNRLSGQRPSGPTGLAGRRKSGSLSRTSSKASIQRRKSSQSGIVTGLGAAAGAAVNWAQAQVQGGSQT
Take B1: in the data set “cryo-EM structure”, the “stoichiometry N” value was determined as 4.

These data come from publication doi:10.1101/2023.03.14.530545 (bioRxiv, 2023).
